Experiments:
[1] = biological target: cytosolic malate dehydrogenase from Fasciola gigantica (Fasciola gigantica); assay: SEC; gel filtration on Superdex 200 (AKTA FPLC), buffer B (50 mM phosphate pH 7.6, 150 mM NaCl, 10% glycerol), room temperature, 0.3 mL/min; column calibrated with mass standards; single peak at about 15.3 mL, ~72 kDa against ~36 kDa for the monomer
purified protein [2] = substrate: NC(=O)C1=CN([C@@H]2O[C@H](COP(=O)(O)OP(=O)(O)OC[C@H]3O[C@@H](n4cnc5c(N)ncnc54)[C@H](O)[C@@H]3O)[C@@H](O)[C@H]2O)C=CC1; assay: purified protein; assay type: biochemical, Fasciola gigantica; details: co-substrate oxaloacetate (0.2 mM), 50 mM Tris-Cl, pH 8.0, 25 °C, 50 nM enzyme, varied: cofactor
purified protein [3] = substrate: NC(=O)c1ccc[n+]([C@@H]2O[C@H](COP(=O)(O)OP(=O)(O)OC[C@H]3O[C@@H](n4cnc5c(N)ncnc54)[C@H](O)[C@@H]3O)[C@@H](O)[C@H]2O)c1; assay: purified protein; assay type: biochemical, Fasciola gigantica; details: co-substrate malate (assay text: 3 mM, misprinted as MDH), 50 mM glycine buffer, pH 9.6, 25 °C, 50 nM enzyme, varied: cofactor
purified protein [4] = substrate: O=C(O)CC(=O)C(=O)O; assay: purified protein; assay type: biochemical, Fasciola gigantica; details: co-substrate NADH (0.21 mM), 50 mM Tris-Cl, pH 8.0, 25 °C, 50 nM enzyme
purified protein [5] = substrate: O=C(O)C[C@H](O)C(=O)O; assay: purified protein; assay type: biochemical, Fasciola gigantica; details: co-substrate NAD+ (0.5 mM), 50 mM glycine buffer, pH 9.6, 25 °C, 50 nM enzyme

stoichiometry N [1]	Molecule	Km (purified protein [2])	Vmax (purified protein [2])	Km (purified protein [3])	Vmax (purified protein [3])	Km (purified protein [4])	Vmax (purified protein [4])	Km (purified protein [5])	Vmax (purified protein [5])
2	cytosolic malate dehydrogenase from Fasciola gigantica (enzyme)	–	–	–	–	–	–	–	–
–	FgMDH (cytosolic malate dehydrogenase of Fasciola gigantica) (Fasciola gigantica) (protein, ~36 kDa, dimer ~72 kDa) MAPVKVLITGAAGQIGYNLAGMVARGDMLGPNQELILHLFDITPMLNSLHGLQMELDDCAFPLVREVVITDKAEVAFDDIDIALMVGAMPRKEGMERKDLLQANANIFKEQGKVLNEKAKKTVKVIVVGNPANTNALIMMKNAPSIPKENFSAMTRLDHNRATAQIAKRLKIPCTAVKNCVIWGNHSATQFPDVSHAVASIGGKDVKVWDAIKDEEWLKNEFVTTVQKRGAAVIAARKLSSAMSAAKAVVDHIHDWWYGTKPGEWVSMSVWSDGSYGAPVDVFFSFPVEIKDKKWTIVKDLSMDDWGKSMFKTTAEELSEEKVAALGK	141 ± 54 µM	3.42 µmol/min	309 ± 15 µM	18.7 µmol/min	276 ± 92 µM	4.1 µmol/min	447 ± 47 µM	5.45 µmol/min
